{"source": "paper PMC3894356", "key": {"[1]": {"target": "human tACEΔ36-g13sol (C-domain of angiotensin-I-converting enzyme) (human)"}, "[2]": {"target": "human C-domain ACE (tACEΔ36-g13sol) R186H (human)"}, "[3]": {"target": "human C-domain ACE (tACEΔ36-g13sol) R522K (human)"}, "[4]": {"target": "human C-domain ACE (tACEΔ36-g13sol) R522Q (human)"}}, "data": [{"binder": "DRVYIHPFHL", "note": "[Angiotensin I (Asp-Arg-Val-Tyr-Ile-His-Pro-Phe-His-Leu)]", "values": [{"measurement": "Km of angiotensin I cleavage, ITC kinetic assay (progress curve), 37 °C, 0 mM NaCl, 50 mM TAPSO pH 7.5, 10 μM ZnSO4", "setting": "[1]", "value": 0.049, "unit": "mM"}, {"measurement": "Km of angiotensin I cleavage, ITC kinetic assay (progress curve), 37 °C, 20 mM NaCl, 50 mM TAPSO pH 7.5, 10 μM ZnSO4", "setting": "[1]", "value": 0.036, "unit": "mM"}, {"measurement": "Km of angiotensin I cleavage, ITC kinetic assay (progress curve), 37 °C, 0 mM NaCl, 50 mM TAPSO pH 7.5, 10 μM ZnSO4", "setting": "[2]", "value": 0.085, "unit": "mM"}, {"measurement": "Km of angiotensin I cleavage, ITC kinetic assay (progress curve), 37 °C, 20 mM NaCl, 50 mM TAPSO pH 7.5, 10 μM ZnSO4", "setting": "[2]", "value": 0.095, "unit": "mM"}, {"measurement": "Km of angiotensin I cleavage, ITC kinetic assay (progress curve), 37 °C, 0 mM NaCl, 50 mM TAPSO pH 7.5, 10 μM ZnSO4", "setting": "[3]", "value": 0.13, "unit": "mM"}, {"measurement": "Km of angiotensin I cleavage, ITC kinetic assay (progress curve), 37 °C, 20 mM NaCl, 50 mM TAPSO pH 7.5, 10 μM ZnSO4", "setting": "[3]", "value": 0.119, "unit": "mM"}, {"measurement": "Km of angiotensin I cleavage, ITC kinetic assay (progress curve), 37 °C, 0 mM NaCl, 50 mM TAPSO pH 7.5, 10 μM ZnSO4", "setting": "[4]", "value": 0.092, "unit": "mM"}, {"measurement": "Km of angiotensin I cleavage, ITC kinetic assay (progress curve), 37 °C, 20 mM NaCl, 50 mM TAPSO pH 7.5, 10 μM ZnSO4", "setting": "[4]", "value": 0.077, "unit": "mM"}]}]}
